Measured values as given in article PMC6479716.

Molecular target: AEDANS labelled N-ter hexahistidine tagged LMV VPg (Lettuce mosaic virus (isolate AF199))
Test: fluorescence polarisation; steady state fluorescence anisotropy of AEDANS labelled His6 VPg* (300 nM) on addition of His6 eIF4E; 25 °C, 20 mM HEPES pH 7.5, 0.25 mM NaCl, 1 mM DTT

B1: N-ter hexahistidine tagged lettuce eIF4E (natural protein)
chain: MVEEIMKSEEQKLIDVNKHRGVRSDGEEDEQLEEGEIVGGDADTLSSSSSSRPGTAIAQHPLEHSWTFWFDTPSAKSKQVAWGSSMRPIYTFSSVEEFWSLYNNIHRPSKLAQGADFYCFKNKIEPKWEDPVCANGGKWTMTFTKAKSDTCWLYTLLAMIGEQFDHGDDICGAVVNVRARQEKIALWTKNAANESAQLSIGKQWKEFIDYNDTIGFIFHEDAKTLDRSAKNKYTV
Kd: 63 nM
